Laboratory results published in the nanobody polyreactivity screen of Harvey et al. (2022).

Assay: yeast display, Sf9 membrane polyspecificity reagent, FACS + sequencing; frameworks hold sequencing errors
Procedure, shortened: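 Polyreactivity labels are assigned by the sorting gate from which each nanobody was recovered. The gates were low and high (top ~1%), set on anti-HA fluorescence for expression and streptavidin fluorescence for reagent binding. Before sorting, galactose-induced (36–48 hours) yeast display cells were stained for 1 hour at 4 °C with 10% biotinylated, detergent-solubilized Sf9 membrane reagent.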
With “QVQLVESGGGLVQAGGSLRLSCAASGIILDPNAMGWSRQAPGKERELVAGITRSGVSTYYAESVKGRFTISRDNAKNTVYLKMNSLKPEDTAVYYCAKDRISGSKGEDDDYWGKGTQVTVSS” the “polyreactivity (PSR sort gate)” value was “low polyreactivity”.
For “QVQLVESGGGLVQAGGSLRLSCAASGIILDRNAMGWYRQAPGKERELVAAINSIGGSTYYADSVKGRFTISRDTAKNTVYLQMNSLKPEDTAVYYCNVAQRYYGNFFSSRYEYWGQGTQVTVSS”, the “polyreactivity (PSR sort gate)” value was “low polyreactivity”.
In the case of “QVQLVESGGGLVQAGGSLRLSCAASGIILGLNVMGWYRQAPGKERELVATITRRGGSTFYADSVKGRFTISRDNAKNTVYLQMNSLKPEDTAVYYCNAEQWIWHHLTVQGFDYWGQGTQVTVSS”, the “polyreactivity (PSR sort gate)” value is reported as “high polyreactivity”.
With “QVQLVESGGGLVQAGGSLRLSCAASGIILPRYAMGWYRQAPGKERELVAAISRGGGTYYADSVKGRFTISRDNAKNTVYLQMNSLIPEDTAVYYCAAAYVFVGSSHYYWGQGTQVTVSS” the “polyreactivity (PSR sort gate)” value was “high polyreactivity”.
With “QVQLVESGGGLVQAGGSLRLSCAASGIILPYYVMGLYRQAPGKERELVAAISSGGRTYYADSVKGRFTISRDNAKNTVYLQMNSLKPEDTAVYYCNAYFTGKWYDYWGQGTQVTVSS” the “polyreactivity (PSR sort gate)” value was “high polyreactivity”.
For “QVQLVESGGGLVQAGGSLRLSCAASGIILRYYAMGWYRQAPGKERELVAAITRGGSTNYADSVKGRFTISRDNAKNTVYLQMNSLKPEVTAVYYCAADVVFWFSNVAWRDFGYWGQGTQVTVSS”, the “polyreactivity (PSR sort gate)” value was “low polyreactivity”.
With “QVQLVESGGGLVQAGGSLRLSCAASGIILSGYAMGWYRQAPGKDRELVAAIRRGGSTYYADSVKGRFTISRDNAKNTVYLQMNSLKPEDTAVYYCNAYSSRKVKWWDDYWGQGTQVTVSS” the “polyreactivity (PSR sort gate)” value was “high polyreactivity”.
With “QVQLVESGGGLVQAGGSLRLSCAASGIILSYYVMGGYRQAPGNATELVAAISLRGGTTYYADSVKGRFTISRDNANTTVYIQMNSLKPEDTAVYYCAAQRPGFGYEYDYWGQGTQVTVSS” the “polyreactivity (PSR sort gate)” value was “high polyreactivity”.
In the case of “QVQLVESGGGLVQAGGSLRLSCAASGIILVRNAMGWYRQAPGKERELVAAISKSGGRTYYADSVKGRFTISRDNAKNTVYLQMNSLKPEDTAVYYCNVLTYHDFDYWGQGSQVTVSS”, the “polyreactivity (PSR sort gate)” value is reported as “high polyreactivity”.
With “QVQLVESGGGLVQAGGSLRLSCAASGIILYGYSMGWYRQAPGKERELVAAISWDGGSTYYADSVKGRFTISRDNAKNTVYLQMISLIPEDTAVYYCNALGGSEYDYWGQGTQVTVSS” the “polyreactivity (PSR sort gate)” value was “low polyreactivity”.
With “QVQLVESGGGLVQAGGSLRLSCAASGIILYPNAMVWYRQAPGKERELVAGITRSGVSTYYADSVKGRFTISRDNAKNTVYLQMNSLNPEDTAVYYCAKDRIYGSKGEDDDYWGQGTQVTVSS” the “polyreactivity (PSR sort gate)” value was “low polyreactivity”.
For “QVQLVESGGGLVQAGGSLRLSCAASGIILYRNVLGWYRQAPGKERELVASINRGSDSTYYADSVKGRFTISRDNEKNTVYLHMNSLKPEDTAVYYCAAVYVYGVEMDYWGQGTQVTVSS”, the “polyreactivity (PSR sort gate)” value was “low polyreactivity”.
For “QVQLVESGGGLVQAGGSLRLSCAASGIILYRYAMGWYRQAPGKERELVAAISRRGGSTYYADSVKGRFTISRDNAKNTVYLQMNSLKPEDTAVYYCATRSTFYSRWGEVYTYYYWGQGTQVTVSS”, the “polyreactivity (PSR sort gate)” value was “high polyreactivity”.
With “QVQLVESGGGLVQAGGSLRLSCAASGIISPFYAMGWYRPAPGNERELVADISTGGTTTYADSVKGRFTISRDNAKNTVYLKMNSLKPEDTAVYYCNAEVSLTYYWIVWASYDYWGQGTQVTVSS” the “polyreactivity (PSR sort gate)” value was “low polyreactivity”.
For “QVQLVESGGGLVQAGGSLRLSCAASGIISRVYAMGWYRQAPGKERELVAAITRRGSTTYYADSVKGRFTISRDNAKNTVYLQMNSLKPEDTAVYYCAALARYGPRYRGDYWGQGTQVTVSS”, the “polyreactivity (PSR sort gate)” value was “high polyreactivity”.
For “QVQLVESGGGLVQAGGSLRLSCAASGIISYLYAMGWYRQAPGKERELVAVIRTSDAITYYADSVKGRFTISRDNAKNTVYLQMISLKPEDTAVYYCAAEDVYEYDYWGQGTQVTVSS”, the “polyreactivity (PSR sort gate)” value was “high polyreactivity”.
For “QVQLVESGGGLVQAGGSLRLSCAASGIISYLYAMGWYRQAPGKERELVAVIRTSDAITYYADSVKGRFTISRDNAKNTVYLQMNSLKPEDTAVYYCAAEDVYEYDYWGQGTQVTVSS”, the “polyreactivity (PSR sort gate)” value was “high polyreactivity”.
In the case of “QVQLVESGGGLVQAGGSLRLSCAASGIISYLYAMGWYRQAPGKERELVAVIRTSDAITYYADSVKGRFTISRDNAKNTVYLQMNSLKPEDTAVYYCNRDRGSIYGWGQGTQVTVSS”, the “polyreactivity (PSR sort gate)” value is reported as “high polyreactivity”.
In the case of “QVQLVESGGGLVQAGGSLRLSCAASGIIVPYNAMGWYRQEPGKVRYLVSAITSGGSTYYADSVKGRFTISRDNAKNTVYLQMNSMKPEDTAVYYCAKVPLSARRNNQSWAYDYWGQGTQVTVSS”, the “polyreactivity (PSR sort gate)” value is reported as “low polyreactivity”.
With “QVQLVESGGGLVQAGGSLRLSCAASGIIYAANPMGWYRQAPGKERELVAAISKNGGITYYADSVKGRFTISRDNAKNTVYLQMNSLKPEDTAVYYCAARWRQTRRYYYWGQGTQVTVSS” the “polyreactivity (PSR sort gate)” value was “high polyreactivity”.
In the case of “QVQLVESGGGLVQAGGSLRLSCAASGIIYAYYAMGWYRQAPGKERELVAAISRSGGITYYADSVKGRFTISRDNAKNTVYLQMNSLKPEDTAVYYCARYSSRPYDYWGQGTQVTVSS”, the “polyreactivity (PSR sort gate)” value is reported as “high polyreactivity”.
In the case of “QVQLVESGGGLVQAGGSLRLSCAASGILSLYTMGCSIQAPGKERELVAAISFRGGNTYYADSVKGRFTISRDNAKNTVYLQMNSLKPEDTAVYYCNAVTRPWRRGYDYWGQGTQVTVSS”, the “polyreactivity (PSR sort gate)” value is reported as “high polyreactivity”.
For “QVQLVESGGGLVQAGGSLRLSCAASGIMFFYYAMGWYRQAPGKERELVAAISNSDTSTSYADSVKGRFTISRDNAKNSVYFQMNSLKPEDTAVYYCNADSPSLSGDYWGQGTQVTVSS”, the “polyreactivity (PSR sort gate)” value was “low polyreactivity”.
For “QVQLVESGGGLVQAGGSLRLSCAASGIMFTLYAMGWYRQAPGKERELVAAISGSGGSTYYAASVKGRFTISRDTAKKTVNLQMNSLKPEDTAVSYCRLAPRYRTGGYWGQGTQVTVSS”, the “polyreactivity (PSR sort gate)” value was “high polyreactivity”.
With “QVQLVESGGGLVQAGGSLRLSCAASGINFGRNAMGWYSQAPGKERELVAAITRRGGRTNYADSVKGRFTISRDNAKNTVYLQMNSLKPEDNAVYYCNAHGRPAEAGYDYWGQATQVTVSS” the “polyreactivity (PSR sort gate)” value was “high polyreactivity”.
In the case of “QVQLVESGGGLVQAGGSLRLSCAASGINFRQYTMGWFRQAPGKERELVAAITSSGRTYYADSVKGRFTISRDNAKNTVYLQMNSLKPEDTAVYYCAAKGTYRGHDYWGQGTQVTVSS”, the “polyreactivity (PSR sort gate)” value is reported as “high polyreactivity”.
In the case of “QVQLVESGGGLVQAGGSLRLSCAASGINFRYYAMGWYRQAPGKERELVARISTRGGSTYYADSVKGRFTISRDNAKNTVYLQMNSLKPEDTAVYYCAAVNGLYYHKYGYYWGQGTQVTVSS”, the “polyreactivity (PSR sort gate)” value is reported as “high polyreactivity”.
For “QVQLVESGGGLVQAGGSLRLSCAASGINFRYYAMGWYRQATGKERELVADISSDGGTYYADSVKGRFKISRDNAQNTVYLQMNSLKPEDTAVYYCAADYQFYWHYYYWGQGTQVTVSS”, the “polyreactivity (PSR sort gate)” value was “high polyreactivity”.
In the case of “QVQLVESGGGLVQAGGSLRLSCAASGINFVRNAMGWYRQAPGKERELVAAITGRGVSTYYADSVKGRFTISRDNAKNTVYLQMKSLKPEDTAVYYCAARYSSRGTYPRRYDYWGQGTQVTVSS”, the “polyreactivity (PSR sort gate)” value is reported as “high polyreactivity”.
With “QVQLVESGGGLVQAGGSLRLSCAASGIPRNTMGWYRQAPGKERELVASISTSGGSTYYADSVKGRFTLSRDNANNTVYLQMNSLKPEDTAVYYCAKKGYASRYFIYDYWGQGTQVTVSS” the “polyreactivity (PSR sort gate)” value was “low polyreactivity”.
In the case of “QVQLVESGGGLVQAGGSLRLSCAASGISFYEYGMGWYRQAPGKERELVAAITFGGGSTYYADSVKGRFTISRDNAKNTVYLQMNSLKPEDTAVYDCAADRVYWGRVQGYYWGQGTQVTVSS”, the “polyreactivity (PSR sort gate)” value is reported as “low polyreactivity”.
In the case of “QVQLVESGGGLVQAGGSLRLSCAASGITFAGYTMGWYRQAPGKERELVAAISWRTGSTYYADSVKGRFTISRDTAKNTVYLQMNSLKPEDTAVYYCAARVPSPYVATYYYWGQGTQVTVSS”, the “polyreactivity (PSR sort gate)” value is reported as “high polyreactivity”.
With “QVQLVESGGGLVQAGGSLRLSCAASGITFAPYAMGRYRQAPGKERELVAAIRGSTTSTYYADSVKGRFTISRDNAKNTVYLQINSLKPEDTAVYYCAAAGWKGLGRFYSWGQGTQVTLSS” the “polyreactivity (PSR sort gate)” value was “high polyreactivity”.
With “QVQLVESGGGLVQAGGSLRLSCAASGITFAQYAMGWYRQAPGKEREVVAGITRSGGSTHYADSVKGRFTISRDNAKNTVYLQMNSLKPEDTAVYYCNARYPYRGKRKPSDYWGQGTQVTVSS” the “polyreactivity (PSR sort gate)” value was “high polyreactivity”.
For “QVQLVESGGGLVQAGGSLRLSCAASGITFARYAMGWYRQAPGKERELVAAISQSGGSTYYADSVKGRFTISRDNAKNTVYLQMNSLKPEDTAVYYCNAYYVNYVSNYEYWGQGTQVTVSS”, the “polyreactivity (PSR sort gate)” value was “high polyreactivity”.
In the case of “QVQLVESGGGLVQAGGSLRLSCAASGITFARYAMGWYRQAPGKERELVAAITRSGGSTNYADSVKGRFTISRDNAKNTVYLQMNSLKPEDTAVYYCAAAGYRFRFVYSRYEYWGQGTQVTVSS”, the “polyreactivity (PSR sort gate)” value is reported as “high polyreactivity”.
For “QVQLVESGGGLVQAGGSLRLSCAASGITFARYTMGWYRQAPGKERELVAAITWSGGRTYYADSVKGRFTISRDNAKNTVYLQMNSLKPEDTAVYYCNVDLGRYGTSSGASVGYGDYDYWGQGTQVTVSS”, the “polyreactivity (PSR sort gate)” value was “high polyreactivity”.
In the case of “QVQLVESGGGLVQAGGSLRLSCAASGITFAYNAMGWYRQAPGKERELVATISIGGNTNYADSVKGRFTISRDNAKNTVYLQMNSLKPEDTAVYYCNADFPHEGGFCYWGQGTQVTVSS”, the “polyreactivity (PSR sort gate)” value is reported as “low polyreactivity”.
With “QVQLVESGGGLVQAGGSLRLSCAASGITFAYNAMGWYRQEPGKERELVARITSGGRTYYADSVKGRFTISRDNAKNTVYLQMNSLKPEDTAVYYCATPYTSYLYGYDYWGQGTQVTVSS” the “polyreactivity (PSR sort gate)” value was “low polyreactivity”.
For “QVQLVESGGGLVQAGGSLRLSCAASGITFAYYAMGWYRQAPGKERELVAAIRGGTNTYYADSVKGRFTISRDNAKYTVYLQMNSLKPEDTGVYYCAVRLYLEMDYWGQGTQVTVSS”, the “polyreactivity (PSR sort gate)” value was “high polyreactivity”.
With “QVQLVESGGGLVQAGGSLRLSCAASGITFAYYAMGWYRQAPGKERELVAAISSTGSSTYYADSVKGRFTISRDNAKNTVYLQMNSLKPEDTAVYYCNKLQQYTLSEYWGQGTQVTVSS” the “polyreactivity (PSR sort gate)” value was “high polyreactivity”.
With “QVQLVESGGGLVQAGGSLRLSCAASGITFAYYAMGWYRQAPGTEREWVAAISRSGGGTYYADSVKGRFTISRDNAKNTVYLQMNTLIPEDTAVYYCNKDYPYYNSGPWAYKFDYCGQGTQVTVSS” the “polyreactivity (PSR sort gate)” value was “high polyreactivity”.
In the case of “QVQLVESGGGLVQAGGSLRLSCAASGITFAYYTMGWYRQAPGKERELVAGISSSGGRTYYADSVKGRFTISRDNAKNTVYLQMNSLKPEDTAVYYCAARFGYRGSTYTLTYGYWGQGTQVTVSS”, the “polyreactivity (PSR sort gate)” value is reported as “high polyreactivity”.
